Results on 10 substances are retold here after PMC5818551.

Where “and” joins values, the source holds several entries; their conditions need not be identical. Identical values can stand only once.

In assay [1] the target is full-length gephyrin rC4.
The target in assay [2] is full-length gephyrin rC4. The assay can be described thus: ITC. For orientation: Isothermal titration calorimetry measures the heat released or taken up as one component is titrated into another.
Assay [3] has as its target gephyrin E-domain (GephE). The assay can be described thus: ITC.
In assay [4] the target is gephyrin E-domain (GephE). The assay can be described thus: not stated; data not shown; physiologic salt concentrations and pH 7.4-8.0.
The target of assay [5] is full-length gephyrin rC4. Kind of assay: cross-linking; EDC cross-linking of purified full-length gephyrin and βL-wt, 6% SDS-PAGE with Coomassie staining, trimer band extracted, tryptic digestion and LC-MS/MS peptide mass fingerprinting.

Consider “GlyRβ-D407P/F408G: mEos4b-tagged full-length human GlyRβ with D407P and F408G (from UniProt P48167-1 23-497) (receptor)”, for which, in the assay with full-length gephyrin rC4 [1], the Deff of extrasynaptic trajectories above the threshold of 0.02 µm^2/s (sptPALM, rat spinal cord neurons), Q1/Q2/Q3; value: the median Q2 turned out to be 0.09 µm^2 · s^−1; the Deff of synaptic trajectories above the threshold of 0.02 µm^2/s (sptPALM, rat spinal cord neurons), Q1/Q2/Q3; value: the median Q2 was 0.04 µm^2 · s^−1; the explored area of extrasynaptic trajectories above the threshold of 0.02 µm^2/s (sptPALM, rat spinal cord neurons), Q1/Q2/Q3; value: the median Q2 is 0.00152 µm^2; the explored area of synaptic trajectories above the threshold of 0.02 µm^2/s (sptPALM, rat spinal cord neurons), Q1/Q2/Q3; value: the median Q2 was 0.00086 µm^2.

In the assay with full-length gephyrin rC4 [1], “mEos4b-tagged full-length human GlyRβ subunit, wild type (from UniProt P48167-1 23-497) (receptor)” came in with a Deff of extrasynaptic trajectories above the threshold of 0.02 µm^2/s (sptPALM, rat spinal cord neurons), Q1/Q2/Q3; value: the median Q2 of 0.05 µm^2 · s^−1; a Deff of synaptic trajectories above the threshold of 0.02 µm^2/s (sptPALM, rat spinal cord neurons), Q1/Q2/Q3; value: the median Q2 of 0.04 µm^2 · s^−1; an explored area of extrasynaptic trajectories above the threshold of 0.02 µm^2/s (sptPALM, rat spinal cord neurons), Q1/Q2/Q3; value: the median Q2 of 0.00091 µm^2; an explored area of synaptic trajectories above the threshold of 0.02 µm^2/s (sptPALM, rat spinal cord neurons), Q1/Q2/Q3; value: the median Q2 of 0.00073 µm^2.

For “GlyR β-loop βL-LO, residues 378-413 (from UniProt P20781 400-435) (peptide)”, in the assay with full-length gephyrin rC4 [2], the dH is -11.8 kcal/mol.

“GlyR β-loop wild type, residues 378-426 of the GlyRβ subunit (from UniProt P20781 400-448) (peptide)” came in with a dH in assay [3] of -16.1 kcal/mol.

As to “GlyR β-loop βL-HI, residues 394-426 (from UniProt P20781 416-448) (peptide)”, the dH in the assay with full-length gephyrin rC4 [2] was -21.5 kcal/mol.

What is called stoichiometry N is the number of molecules, sites or subunits per partner or assembly. Turning to “gephyrin E-domain (GephE) (domain or fragment)”, the stoichiometry N in assay [4] is 2.

“GlyRβ-geph^-: mEos4b-tagged full-length human GlyRβ with F398A/I400A (from UniProt P48167-1 23-497) (receptor)”: in the assay with full-length gephyrin rC4 [1], the Deff of extrasynaptic trajectories above the threshold of 0.02 µm^2/s (sptPALM, rat spinal cord neurons), Q1/Q2/Q3; value: the median Q2 was 0.11 µm^2 · s^−1; the Deff of synaptic trajectories above the threshold of 0.02 µm^2/s (sptPALM, rat spinal cord neurons), Q1/Q2/Q3; value: the median Q2 is 0.09 µm^2 · s^−1; the explored area of extrasynaptic trajectories above the threshold of 0.02 µm^2/s (sptPALM, rat spinal cord neurons), Q1/Q2/Q3; value: the median Q2 was 0.00183 µm^2; the explored area of synaptic trajectories above the threshold of 0.02 µm^2/s (sptPALM, rat spinal cord neurons), Q1/Q2/Q3; value: the median Q2 came to 0.00151 µm^2.

For “GlyRβ-HI: mEos4b-tagged full-length human GlyRβ with deletion ΔV378-L393 (from UniProt P48167-1 23-497) (receptor)”, in the assay with full-length gephyrin rC4 [1], the Deff of extrasynaptic trajectories above the threshold of 0.02 µm^2/s (sptPALM, rat spinal cord neurons), Q1/Q2/Q3; value: the median Q2 stood at 0.05 µm^2 · s^−1; the Deff of synaptic trajectories above the threshold of 0.02 µm^2/s (sptPALM, rat spinal cord neurons), Q1/Q2/Q3; value: the median Q2 was 0.04 µm^2 · s^−1; the explored area of extrasynaptic trajectories above the threshold of 0.02 µm^2/s (sptPALM, rat spinal cord neurons), Q1/Q2/Q3; value: the median Q2 worked out at 0.00096 µm^2; the explored area of synaptic trajectories above the threshold of 0.02 µm^2/s (sptPALM, rat spinal cord neurons), Q1/Q2/Q3; value: the median Q2 was 0.00077 µm^2.

On to “full-length gephyrin rC4 (natural protein)”, for which the stoichiometry N with full-length gephyrin rC4 [5] is 2 and 3.

In the assay with full-length gephyrin rC4 [2], “core βL peptide, residues 394-413 (from UniProt P20781 416-435)” yielded a dH of -11 kcal/mol.
